Test results as given in the Human Domainome abundance scans (Beltran et al. 2025).
± gives the uncertainty stated by the source.

B1: Tudor domain-containing protein 3, residues 554 to 611; numbered along this chain, Q9H7E2 (parent)
chain: KMWKPGDECFALYWEDNKFYRAEVEALHSSGMTAVVKFIDYGNYEEVLLSNIKPIQTE

Variants of: B1
Assay: abundance fitness (aPCA) (normalised: wild type 0, dead -1); higher = more abundant; growth selection in yeast, the domain comes from the species named
Conditions: Homo sapiens

Variant | abundance fitness
L48Y | -0.247 ± 0.12
L48I | -0.408 ± 0.13
L48R | -0.197 ± 0.053
L48D | -0.177 ± 0.098
L48G | -0.479 ± 0.069
L48P | -0.077 ± 0.08
A34N | -0.781 ± 0.16
A34F | -0.919 ± 0.21
A34V | -0.078 ± 0.065
A34M | -0.358 ± 0.11
A34S | -0.73 ± 0.093
A34Y | -0.897 ± 0.29
E23M | -0.005 ± 0.1
E23Q | -0.103 ± 0.11
E23T | -0.004 ± 0.07
E23W | -0.176 ± 0.08
E23N | 0.059 ± 0.097
D7R | -0.762 ± 0.07
D7I | -0.826 ± 0.17
D7A | -0.396 ± 0.068
D7S | -0.608 ± 0.078
D7F | -0.677 ± 0.15
H28S | -0.042 ± 0.066
H28M | -0.118 ± 0.076

Variant | abundance fitness
H28R | -0.183 ± 0.054
H28I | -0.508 ± 0.15
H28D | -0.144 ± 0.11
H28L | -0.087 ± 0.062
H28A | 0.024 ± 0.075
H28C | -0.098 ± 0.077
H28F | -0.619 ± 0.14
K4E | -0.2 ± 0.093
K4F | -0.221 ± 0.078
K4Q | -0.158 ± 0.089
K4L | -0.287 ± 0.065
K4C | -0.169 ± 0.084
K4D | -0.678 ± 0.13
K4H | -0.335 ± 0.099
T57H | 0.06 ± 0.12
T57D | 0.083 ± 0.074
T57C | -0.005 ± 0.085
T57V | 0.04 ± 0.063
E46H | -0.308 ± 0.12
E46Q | -0.055 ± 0.11
E46G | -0.88 ± 0.095
E46D | -0.149 ± 0.087
E46I | -0.488 ± 0.12
E46F | -0.697 ± 0.19

Variant | abundance fitness
E58W | -0.068 ± 0.24
E58Q | -0.252 ± 0.29
E58N | 0.049 ± 0.29
E58C | -0.062 ± 0.16
E58Y | -0.157 ± 0.25
E58V | -0.136 ± 0.084
E58G | -0.042 ± 0.082
F19E | -0.706 ± 0.099
F19G | -0.925 ± 0.077
F19D | -0.881 ± 0.15
F19L | -0.472 ± 0.08
F19K | -0.85 ± 0.16
S50E | -0.118 ± 0.083
S50L | -0.523 ± 0.074
S50P | -0.548 ± 0.082
S50A | 0.019 ± 0.077
S50D | 0.026 ± 0.084
T33A | -0.121 ± 0.075
T33M | -0.246 ± 0.11
T33I | -0.276 ± 0.094
T33L | -0.331 ± 0.065
T33H | -0.126 ± 0.089
T33C | -0.14 ± 0.067
T33Q | -0.287 ± 0.094

Variant | abundance fitness
T33S | 0.012 ± 0.059
W14D | 0.129 ± 0.1
W14Q | 0.169 ± 0.099
W14G | 0.073 ± 0.054
W14H | 0.043 ± 0.15
W14L | -0.034 ± 0.062
W14V | -0.012 ± 0.057
L12D | -0.891 ± 0.19
L12P | -0.394 ± 0.075
L12T | -0.861 ± 0.12
L12H | -0.552 ± 0.13
L12K | 0.01 ± 0.12
L12C | -0.236 ± 0.13
L12G | -0.782 ± 0.086
L12A | -0.525 ± 0.083
L12W | -0.384 ± 0.083
S30Y | -0.463 ± 0.1
S30C | -0.109 ± 0.089
S30D | -0.179 ± 0.074
E45M | -0.586 ± 0.15
E45L | -0.53 ± 0.08
E45Q | -0.13 ± 0.096
E45T | -0.398 ± 0.098
E45H | -0.333 ± 0.13

Variant | abundance fitness
E45C | -0.262 ± 0.079
Y20D | -1.01 ± 0.17
Y20H | 0.081 ± 0.12
Y20S | -0.59 ± 0.083
Y20M | -0.297 ± 0.097
K18M | -0.033 ± 0.084
K18A | -0.126 ± 0.089
K18W | -0.736 ± 0.11
K18Q | -0.144 ± 0.086
K18L | -0.254 ± 0.075
K18R | -0.095 ± 0.056
K18I | -0.273 ± 0.12
K18C | -0.188 ± 0.08
I52M | 0.028 ± 0.12
I52W | -0.81 ± 0.11
I52V | -0.184 ± 0.063
I52H | -1.04 ± 0.34
G31Y | -0.269 ± 0.13
G31V | -0.45 ± 0.067
G31R | -0.033 ± 0.055
G31K | -0.148 ± 0.1
G31T | 0.02 ± 0.09
P5F | -0.529 ± 0.15
P5S | -0.113 ± 0.065

Variant | abundance fitness
P5Y | -0.447 ± 0.14
P5R | -0.123 ± 0.052
P5I | -0.141 ± 0.16
P5L | -0.261 ± 0.081
P5C | -0.201 ± 0.073
I55P | -0.084 ± 0.11
I55C | -0.041 ± 0.074
I55A | -0.028 ± 0.079
I55D | -0.415 ± 0.1
I55M | -0.096 ± 0.095
D40N | -0.187 ± 0.12
P54K | -0.138 ± 0.11
P54T | -0.125 ± 0.093
P54F | -0.701 ± 0.15
P54L | -0.36 ± 0.065
P54R | -0.17 ± 0.054
P54D | -0.229 ± 0.1
D16N | -0.417 ± 0.15
D16Q | -0.498 ± 0.12
D16H | -0.116 ± 0.14
D16R | -0.308 ± 0.057
D16Y | -0.691 ± 0.17
D16A | -0.529 ± 0.08
D16F | -0.76 ± 0.25

Variant | abundance fitness
S29W | -0.368 ± 0.076
S29V | 0.118 ± 0.064
S29E | -0.008 ± 0.081
S29R | -0.133 ± 0.053
S29M | -0.009 ± 0.084
F10P | -0.923 ± 0.15
F10K | -0.32 ± 0.11
F10T | -0.383 ± 0.087
F10Y | 0.026 ± 0.088
F10W | -0.051 ± 0.079
F10A | -0.178 ± 0.072
F10I | -0.076 ± 0.1
F10G | -0.84 ± 0.077
F10H | -0.255 ± 0.11
V47P | -0.893 ± 0.11
V47Y | -0.886 ± 0.23
V47W | -0.846 ± 0.071
L49C | -0.243 ± 0.092
L49V | -0.046 ± 0.058
L49W | -0.629 ± 0.1
L49Q | -0.583 ± 0.11
L49N | -1.05 ± 0.19
L49G | -0.954 ± 0.079
